Measured values taken from PMC5986005, “Catalysis of transthiolacylation in the active centers of dihydrolipoamide acyltransacetylase components of 2‐oxo acid dehydrogenase complexes” (FEBS Open Bio, 2018).
Positions count from the first letter of the chain named. Numbers in names are those of the source.

B1: OGDHc assembled from E1o, E2o and E3 (2-oxoglutarate site on E1o) (Escherichia coli K-12) (protein)
chain: MQNSALKAWLDSSYLSGANQSWIEQLYEDFLTDPDSVDANWRSTFQQLPGTGVKPDQFHSQTREYFRRLAKDASRYSSTISDPDTNVKQVKVLQLINAYRFRGHQHANLDPLGLWQQDKVADLDPSFHDLTEADFQETFNVGSFASGKETMKLGELLEALKQTYCGPIGAEYMHITSTEEKRWIQQRIESGRATFNSEEKKRFLSELTAAEGLERYLGAKFPGAKRFSLEGGDALIPMLKEMIRHAGNSGTREVVLGMAHRGRLNVLVNVLGKKPQDLFDEFAGKHKEHLGTGDVKYHMGFSSDFQTDGGLVHLALAFNPSHLEIVSPVVIGSVRARLDRLDEPSSNKVLPITIHGDAAVTGQGVVQETLNMSKARGYEVGGTVRIVINNQVGFTTSNPLDARSTPYCTDIGKMVQAPIFHVNADDPEAVAFVTRLALDFRNTFKRDVFIDLVCYRRHGHNEADEPSATQPLMYQKIKKHPTPRKIYADKLEQEKVATLEDATEMVNLYRDALDAGDCVVAEWRPMNMHSFTWSPYLNHEWDEEYPNKVEMKRLQELAKRISTVPEAVEMQSRVAKIYGDRQAMAAGEKLFDWGGAENLAYATLVDEGIPVRLSGEDSGRGTFFHRHAVIHNQSNGSTYTPLQHIHNGQGAFRVWDSVLSEEAVLAFEYGYATAEPRTLTIWEAQFGDFANGAQVVIDQFISSGEQKWGRMCGLVMLLPHGYEGQGPEHSSARLERYLQLCAEQNMQVCVPSTPAQVYHMLRRQALRGMRRPLVVMSPKSLLRHPLAVSSLEELANGTFLPAIGEIDELDPKGVKRVVMCSGKVYYDLLEQRRKNNQHDVAIVRIEQLYPFPHKAMQEVLQQFAHVKDFVWCQEEPLNQGAWYCSQHHFREVIPFGASLRYAGRPASASPAVGYMSVHQKQQQDLVNDALNVE
notes: components expressed separately in E. coli (pCA24N in AG1 for E1o and E2o; E1o purified on Ni-Sepharose) and reassembled at E1o:E2o:E3 mass ratio 1:1:1; with Dihydrolipoyllysine-residue succinyltransferase component of 2-oxoglutarate dehydrogenase complex; Dihydrolipoyl dehydrogenase
B2: OGDHc assembled from E1o, E2o and E3 (CoA site on E2o) (Escherichia coli K-12; H376W) (protein)
chain: SSVDILVPDLPESVADATVATWHKKPGDAVVRDEVLVEIETDKVVLEVPASADGILDAVLEDEGTTVTSRQILGRLREGNSAGKETSAKSEEKASTPAQRQQASLEEQNNDALSPAIRRLLAEHNLDASAIKGTGVGGRLTREDVEKHLAKAPAKESAPAAAAPAAQPALAARSEKRVPMTRLRKRVAERLLEAKNSTAMLTTFNEVNMKPIMDLRKQYGEAFEKRHGIRLGFMSFYVKAVVEALKRYPEVNASIDGDDVVYHNYFDVSMAVSTPRGLVTPVLRDVDTLGMADIEKKIKELAVKGRDGKLTVEDLTGGNFTITNGGVFGSLMSTPIINPPQSAILGMHAIKDRPMAVNGQVEILPMMYLALSYDWRLIDGRESVGFLVTIKELLEDPTRLLLDV
notes: components expressed separately in E. coli (pCA24N in AG1 for E1o and E2o) and reassembled at E1o:E2o:E3 mass ratio 1:1:1; with 2-oxoglutarate dehydrogenase E1 component; Dihydrolipoyl dehydrogenase
B3: OGDHc assembled from E1o, E2o and E3 (CoA site on E2o) (Escherichia coli K-12; R377A) (protein)
chain: B2 chain with W375H, R376A
notes: as for B2
B4: OGDHc assembled from E1o, E2o and E3 (CoA site on E2o) (Escherichia coli K-12; T324A) (protein)
chain: B2 chain with T323A, W375H
notes: as for B2
B5: OGDHc assembled from E1o, E2o and E3 (CoA site on E2o) (Escherichia coli K-12) (protein)
chain: B2 chain with W375H
notes: as for B2
B6: OGDHc assembled from E1o, E2o and E3 (CoA site on E2o) (Escherichia coli K-12; D380A) (protein)
chain: B2 chain with W375H, D379A
notes: as for B2
B7: OGDHc assembled from E1o, E2o and E3 (CoA site on E2o) (Escherichia coli K-12; H376G) (protein)
chain: B2 chain with W375G
notes: as for B2

Columns and labels:
[1] = target: T1, E2o (Escherichia coli, UniProt P0AFG6, H376W); assay: intrinsic Trp fluorescence quenching (ex […] nm); assay type: binding
T1 construct: gene sucB; full-length E2o alone, pCA24N plasmid, expressed in E. coli, PEG precipitation and size exclusion

[2] = target: T2, E1o (with LDo as acyl acceptor) (Escherichia coli, UniProt P0AFG3); assay: reductive acylation of LDo, ESI FT-MS; assay type: biochemical
T2 construct: gene sucA; E1o purified on Ni-Sepharose; acceptor is the separate E2o lipoyl domain (residues 1-105, His6-tagged, lipoylated in vitro); with Dihydrolipoyllysine-residue succinyltransferase component of 2-oxoglutarate dehydrogenase complex

[3] = target: T3, CDo (E2o catalytic domain) (Escherichia coli, UniProt P0AFG6); assay: reverse succinyl transfer to dihydro-LDo, ESI FT-MS; assay type: biochemical; conditions: 40 μM dihydro-LDo, 0.10 mM TCEP, 0.15 mM succinyl-CoA, 35 mM NH4HCO3 pH 7.5, 30 °C
T3 construct: gene sucB; separate dihydro-LDo (residues 1-105) as acyl acceptor

[4] = substrate: O=C(O)CCC(=O)C(=O)O; assay: purified protein; assay type: biochemical, Escherichia coli; conditions: reassembled complex with wild-type E2o; CoA, NAD+, ThDP, Mg2+; kcat of overall reaction
[5] = substrate: CC(C)(COP(=O)(O)OP(=O)(O)OC[C@H]1O[C@@H](n2cnc3c(N)ncnc32)[C@H](O)[C@@H]1OP(=O)(O)O)[C@@H](O)C(=O)NCCC(=O)NCCS; assay: purified protein; assay type: biochemical, Escherichia coli; conditions: 2-oxoglutarate, NAD+, ThDP, Mg2+, kcat of overall reaction
[6] = reassembled complex with wild-type E2o

T3 sequence (P0AFG6 94-405): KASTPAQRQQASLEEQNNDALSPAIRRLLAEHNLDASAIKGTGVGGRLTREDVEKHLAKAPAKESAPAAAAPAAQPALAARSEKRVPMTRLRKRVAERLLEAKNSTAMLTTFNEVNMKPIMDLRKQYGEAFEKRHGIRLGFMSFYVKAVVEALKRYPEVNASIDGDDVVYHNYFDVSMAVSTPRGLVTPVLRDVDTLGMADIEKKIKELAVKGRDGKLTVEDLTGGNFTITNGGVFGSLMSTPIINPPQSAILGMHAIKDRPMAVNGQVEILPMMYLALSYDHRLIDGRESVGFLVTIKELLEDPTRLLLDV

Molecule	Km ([5]; reassembled complex) [µM]	kcat ([5]; reassembled complex) [s⁻¹]	other results
CC(C)(COP(=O)(O)OP(=O)(O)OC[C@H]1O[C@@H](n2cnc3c(N)ncnc32)[C@H](O)[C@@H]1OP(=O)(O)O)[C@@H](O)C(=O)NCCC(=O)NCCS [CoA, coenzyme A]	–	–	Kd [1]: 61.2 µM
CC(=O)C(=O)O [pyruvate]	–	–	reductive acylation of LDo, ESI FT-MS ([2]; LDo as acyl acceptor, ThDP, Mg2+): could also be used by E1o as substrates for reductive acylation of LDo
CC(C)(COP(=O)(O)OP(=O)(O)OC[C@H]1O[C@@H](n2cnc3c(N)ncnc32)[C@H](O)[C@@H]1OP(=O)(O)O)[C@@H](O)C(=O)NCCC(=O)NCCSC(=O)CCC(=O)O [succinyl-CoA, succinyl-coenzyme A]	–	–	reverse succinyl transfer to dihydro-LDo, ESI FT-MS [3]: rate of succinyl transfer from succinyl‐CoA to the dihydro‐LDo; Kd [1]: 47 µM
O=C(O)CCCC(=O)C(=O)O [OA, 2-oxoadipate]	–	–	reductive acylation of LDo, ESI FT-MS ([2]; 100 μM LDo, 0.1 mM ThDP, 0.5 mM MgCl2, 35 mM NH4HCO3 pH 7.5, 2.5 mM OA): could also be used by E1o as substrates for reductive acylation of LDo
B1	–	–	Km [4]: 50 ± 11 µM; kcat [4]: 48.0 s⁻¹; kcat/Km [4]: 1.07e+06 M⁻¹ s⁻¹
B2	13.3	28.8	–
B3	19.8	27.0	–
B4	23.3	21.7	–
B5	–	–	Km [5, 6]: 20.4 µM; kcat [5, 6]: 48.0 s⁻¹
B6	21.1	4.6	–
B7	20.6	5.76	–
